Measured values as given in patent US20200024322A1 (Eli Lilly, published 2020).
Changes are numbered by the printed parent chain. Numbered stars: 1 amine (or outer) side, 2 acyl side, 3 side chain; on linkers, the order of the positions; unused ones are H or OH. Square brackets hold non-standard residues; d marks the D form. Side chains are listed from the residue outwards. Ends that are not written are not given here. * marks the point of attachment. C20 diacid = O=C(O)CCCCCCCCCCCCCCCCCCC(=O)*; αMePhe(2-F) = C[C@](N)(Cc1ccccc1F)C(=O)O; γGlu = O=C(O)[C@H](CCC(=O)[*:2])N[*:1]; αMeF = C[C@](N)(Cc1ccccc1)C(=O)O; αMeL = CC(C)C[C@](C)(N)C(=O)O; AEEA = NCCOCCOCC(=O)O; Aib = CC(C)(N)C(=O)O

How the values were obtained:
human GLP-1 receptor = target: T1, human GLP-1 receptor (human, UniProt P43220 24-463); assay: SPA, [125I]-GLP-1 displacement, hGLP-1R membranes
T1 construct: whole, on cells; Used as crude membranes of stably transfected HEK293 cells; also called hGLP1R; hGLP-1R

human GIP receptor = target: T2, human GIP receptor (human, UniProt P48546 22-466); assay: SPA, [125I]-GIP displacement, hGIPR membranes
T2 construct: whole, on cells; Used as crude membranes of stably transfected CHO cells; also called hGIPR
T2 sequence (looked up): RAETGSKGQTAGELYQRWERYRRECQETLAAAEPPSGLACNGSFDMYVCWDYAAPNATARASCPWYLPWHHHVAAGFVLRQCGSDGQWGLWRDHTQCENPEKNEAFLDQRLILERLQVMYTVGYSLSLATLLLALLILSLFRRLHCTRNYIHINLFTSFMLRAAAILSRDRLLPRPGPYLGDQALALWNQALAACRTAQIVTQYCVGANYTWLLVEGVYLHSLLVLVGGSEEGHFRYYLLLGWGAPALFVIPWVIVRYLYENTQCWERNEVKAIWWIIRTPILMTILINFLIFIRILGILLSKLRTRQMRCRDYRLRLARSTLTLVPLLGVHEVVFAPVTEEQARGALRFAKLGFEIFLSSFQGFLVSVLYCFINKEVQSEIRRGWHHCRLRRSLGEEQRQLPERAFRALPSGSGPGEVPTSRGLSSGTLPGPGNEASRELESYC

human glucagon receptor = target: T3, human glucagon receptor (human, UniProt P47871 26-477); assay: SPA, [125I]-Gcg displacement, hGcgR membranes
T3 construct: whole, on cells; Used as crude membranes of stably transfected HEK293 cells; also called hGcgR; hGLcgR
T3 sequence (P47871 26-477): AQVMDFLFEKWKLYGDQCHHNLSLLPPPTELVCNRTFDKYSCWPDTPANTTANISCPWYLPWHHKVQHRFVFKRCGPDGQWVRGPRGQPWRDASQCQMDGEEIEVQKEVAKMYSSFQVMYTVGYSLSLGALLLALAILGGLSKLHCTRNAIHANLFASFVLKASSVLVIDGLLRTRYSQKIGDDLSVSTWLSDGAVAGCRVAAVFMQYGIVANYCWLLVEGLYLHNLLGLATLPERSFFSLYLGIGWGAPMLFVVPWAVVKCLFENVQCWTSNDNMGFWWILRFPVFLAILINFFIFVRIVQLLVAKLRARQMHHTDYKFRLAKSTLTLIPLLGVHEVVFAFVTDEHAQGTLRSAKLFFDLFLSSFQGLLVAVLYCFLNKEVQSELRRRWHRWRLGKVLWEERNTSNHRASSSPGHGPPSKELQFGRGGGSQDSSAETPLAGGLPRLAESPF

B1: Example 81 (peptide)
peptide: YXEGTFTSDYXILLDKKAQXAFIEYLIEGGPSSGAPPPS
modifications: Aib2; D-Ser11; K17((2-[2-(2-Amino-ethoxy)-ethoxy]-acetyl)2-(γ-Glu)-CO-(CH2)18-CO2H); Aib20; C-terminal NH2
- Ki (human GLP-1 receptor): 2.88 nM
- Ki (human GIP receptor): 0.198 nM
- Ki (human glucagon receptor): 344 nM

B2: Example 74 (peptide)
peptide: B1 peptide with X11S, L13X, F22X
modifications: Aib2; αMeL13; K17((2-[2-(2-Amino-ethoxy)-ethoxy]-acetyl)2-(γ-Glu)-CO-(CH2)18-CO2H); Aib20; αMeF22; C-terminal NH2
- Ki (human GLP-1 receptor): 5.99 nM
- Ki (human GIP receptor): 0.0279 nM
- Ki (human glucagon receptor): 69.8 nM

B3: Example 149 (peptide)
peptide: YXEGTXTSDYSIXLDEKAQXEFIVYLIEGGPSSGAPPPS
modifications: Aib2; αMeF(2F)6; αMeL13; K17((2-[2-(2-Amino-ethoxy)-ethoxy]-acetyl)2-(γ-Glu)-CO-(CH2)18-CO2H); Aib20; C-terminal NH2
- Ki (human GLP-1 receptor): 26.1 nM
- Ki (human GIP receptor): 0.0708 nM
- Ki (human glucagon receptor): 127 nM

B4: Example 163 (peptide)
peptide: B3 peptide with Y1H, V24E
modifications: Aib2; αMeF(2F)6; αMeL13; K17((2-[2-(2-Amino-ethoxy)-ethoxy]-acetyl)2-(γ-Glu)-CO-(CH2)18-CO2H); Aib20; C-terminal NH2
- Ki (human GLP-1 receptor): 10.8 nM
- Ki (human GIP receptor): 0.116 nM
- Ki (human glucagon receptor): 117 nM

B5: Example 140 (peptide)
peptide: B3 peptide with E16K, E21D, V24E
modifications: Aib2; αMeF6; αMeL13; K17((2-[2-(2-Amino-ethoxy)-ethoxy]-acetyl)2-(γ-Glu)-CO-(CH2)18-CO2H); Aib20; C-terminal NH2
- Ki (human GLP-1 receptor): 1.46 nM
- Ki (human GIP receptor): 0.0474 nM
- Ki (human glucagon receptor): 175 nM

B6: Example 142 (peptide)
peptide: B3 peptide with E16K, E21H, V24E
modifications: Aib2; αMeF6; αMeL13; K17((2-[2-(2-Amino-ethoxy)-ethoxy]-acetyl)2-(γ-Glu)-CO-(CH2)18-CO2H); Aib20; C-terminal NH2
- Ki (human GLP-1 receptor): 1.06 nM
- Ki (human GIP receptor): 0.0275 nM
- Ki (human glucagon receptor): 53.1 nM

B7: Example 145 (peptide)
peptide: B1 peptide with F6X, Y10A, X11S, L13X
modifications: Aib2; αMeF6; αMeL13; K17((2-[2-(2-Amino-ethoxy)-ethoxy]-acetyl)2-(γ-Glu)-CO-(CH2)18-CO2H); Aib20; C-terminal NH2
- Ki (human GLP-1 receptor): 2.22 nM
- Ki (human GIP receptor): 0.0652 nM
- Ki (human glucagon receptor): 158 nM

B8: Example 153 (peptide)
peptide: B3 peptide with V24H
modifications: Aib2; αMeF(2F)6; αMeL13; K17((2-[2-(2-Amino-ethoxy)-ethoxy]-acetyl)2-(γ-Glu)-CO-(CH2)18-CO2H); Aib20; C-terminal NH2
- Ki (human GLP-1 receptor): 22.2 nM
- Ki (human GIP receptor): 0.0578 nM
- Ki (human glucagon receptor): 43.8 nM

B9: Example 150 (peptide)
peptide: B3 peptide with V24S
modifications: Aib2; αMeF(2F)6; αMeL13; K17((2-[2-(2-Amino-ethoxy)-ethoxy]-acetyl)2-(γ-Glu)-CO-(CH2)18-CO2H); Aib20; C-terminal NH2
- Ki (human GLP-1 receptor): 30.5 nM
- Ki (human GIP receptor): 0.0649 nM
- Ki (human glucagon receptor): 63.2 nM

B10: Example 154 (peptide)
peptide: Y[Aib]EGT[αMePhe(2-F)]TSDHSI[αMeL]LDEK([AEEA-AEEA-γGlu-C20 diacid])AQ[Aib]EFIEYLIEGGPSSGAPPPS-NH2
modifications: N-terminus assumed
SMILES: CC[C@H](C)[C@H](NC(=O)[C@H](CC(C)C)NC(=O)[C@H](Cc1ccc(O)cc1)NC(=O)[C@H](CCC(=O)O)NC(=O)[C@@H](NC(=O)[C@H](Cc1ccccc1)NC(=O)[C@H](CCC(=O)O)NC(=O)C(C)(C)NC(=O)[C@H](CCC(N)=O)NC(=O)[C@H](C)NC(=O)[C@H](CCCCNC(=O)COCCOCCNC(=O)COCCOCCNC(=O)CC[C@H](NC(=O)CCCCCCCCCCCCCCCCCCC(=O)O)C(=O)O)NC(=O)[C@H](CCC(=O)O)NC(=O)[C@H](CC(=O)O)NC(=O)[C@H](CC(C)C)NC(=O)[C@](C)(CC(C)C)NC(=O)[C@@H](NC(=O)[C@H](CO)NC(=O)[C@H](Cc1c[nH]cn1)NC(=O)[C@H](CC(=O)O)NC(=O)[C@H](CO)NC(=O)[C@@H](NC(=O)[C@](C)(Cc1ccccc1F)NC(=O)[C@@H](NC(=O)CNC(=O)[C@H](CCC(=O)O)NC(=O)C(C)(C)NC(=O)[C@@H](N)Cc1ccc(O)cc1)[C@@H](C)O)[C@@H](C)O)[C@@H](C)CC)[C@@H](C)CC)C(=O)N[C@@H](CCC(=O)O)C(=O)NCC(=O)NCC(=O)N1CCC[C@H]1C(=O)N[C@@H](CO)C(=O)N[C@@H](CO)C(=O)NCC(=O)N[C@@H](C)C(=O)N1CCC[C@H]1C(=O)N1CCC[C@H]1C(=O)N1CCC[C@H]1C(=O)N[C@@H](CO)C(N)=O
- Ki (human GLP-1 receptor): 5.64 nM
- Ki (human GIP receptor): 0.061 nM
- Ki (human glucagon receptor): 762 nM

B11: Example 4 (peptide)
peptide: B3 peptide with Y10X, E16X, V24X, Y25X
modifications: not fully specified; Aib2; αMeF(2F)6; 4Pal10; αMeL13; Orn16; K17((2-[2-(2-Amino-ethoxy)-ethoxy]-acetyl)2-(γ-Glu)-CO-(CH2)16-CO2H); Aib20; D-Glu24; αMeY25; C-terminal NH2
- Ki (human GLP-1 receptor): 1.63 nM
- Ki (human GIP receptor): 0.0528 nM
- Ki (human glucagon receptor): 686 nM

B12: Example 5 (peptide)
peptide: B3 peptide with Y10V, E16X, V24X, Y25X
modifications: not fully specified; Aib2; αMeF(2F)6; αMeL13; Orn16; K17((2-[2-(2-Amino-ethoxy)-ethoxy]-acetyl)2-(γ-Glu)-CO-(CH2)16-CO2H); Aib20; D-Glu24; αMeY25; C-terminal NH2
- Ki (human GLP-1 receptor): 0.902 nM
- Ki (human GIP receptor): 0.0611 nM
- Ki (human glucagon receptor): 519 nM

B13: Example 93 (peptide)
peptide: Y[Aib]EGT[αMeF]TSDYSILK([AEEA-AEEA-γGlu-C20 diacid])DKIAQ[Aib]AFIEYLIEGG-NH2
modifications: N-terminus assumed
SMILES: CC[C@H](C)[C@H](NC(=O)[C@H](CCCCN)NC(=O)[C@H](CC(=O)O)NC(=O)[C@H](CCCCNC(=O)COCCOCCNC(=O)COCCOCCNC(=O)CC[C@H](NC(=O)CCCCCCCCCCCCCCCCCCC(=O)O)C(=O)O)NC(=O)[C@H](CC(C)C)NC(=O)[C@@H](NC(=O)[C@H](CO)NC(=O)[C@H](Cc1ccc(O)cc1)NC(=O)[C@H](CC(=O)O)NC(=O)[C@H](CO)NC(=O)[C@@H](NC(=O)[C@](C)(Cc1ccccc1)NC(=O)[C@@H](NC(=O)CNC(=O)[C@H](CCC(=O)O)NC(=O)C(C)(C)NC(=O)[C@@H](N)Cc1ccc(O)cc1)[C@@H](C)O)[C@@H](C)O)[C@@H](C)CC)C(=O)N[C@@H](C)C(=O)N[C@@H](CCC(N)=O)C(=O)NC(C)(C)C(=O)N[C@@H](C)C(=O)N[C@@H](Cc1ccccc1)C(=O)N[C@H](C(=O)N[C@@H](CCC(=O)O)C(=O)N[C@@H](Cc1ccc(O)cc1)C(=O)N[C@@H](CC(C)C)C(=O)N[C@H](C(=O)N[C@@H](CCC(=O)O)C(=O)NCC(=O)NCC(N)=O)[C@@H](C)CC)[C@@H](C)CC
- Ki (human GLP-1 receptor): 1.89 nM
- Ki (human GIP receptor): 0.0859 nM
- Ki (human glucagon receptor): 15.7 nM
